Data reported in the DeepSol protein solubility set.

Experiment: soluble on expression in E. coli; label from the status in PepcDB or PDB records

MGSDKIHHHHHHMWFRNLLIYRLAGEVITSDELEAYLAKQTLQGCLGLEPQSRGWVPPGIAEADLVYSYGQQMLIALGTEKKLLPASVVNQLAKVRAQEMESHQGYAPGRKQMKEIKEAAYRELLSRAFAIRQRSHAWIDPVGGWFIVEGASASKADALIEAFIKSTGIGLKRIRTTMAPTSAMTAWLSGDDPPAIFSVDSDSIFRSREDKKVSVSYIRQSPDPQEITRHVRTGKEVIRLAMTWRDKISFILDENLQLKRLTLLDIDREPAETAEEQFDSNFFLMTEELRQLLPDLVEILGGMTAD
soluble on expression in E. coli: not soluble

MSLDDERTQVLLKRDSEVFLHQAMSTPCLDTLDAAEGIYIQDATGKKYMDFHGNNVHQLGYGHPHVIKRVQEQIAKLPFSPRRFTNETAIECAEKLTQICGGELNRVLFAPGGTSAVGMALKLARHITGNYKVVSLWDSFHGASLDAISVGGEACFRQGMGPLMAGVERIPPAVSYRGAFPVADGSDVHYADYLEYVIEKEGGVGAFIAEAVRNTDVQVPSKAYWKRIREICDKHNVMLIIDDIPNGMGRSGEWFTYQAYDIEPDMLCIGKGLGGGLVPIAAMVTKDKYNTAEQISMGHYTHEKSPIGCAAALATMEAIEQDGLLDKVKADSQFMREKLLEMKAKYPVIGDVRGIGMLWGIELVTDHESKARAYDEAEAVLYQCLNNGVSFKVSQGNVIQLSPPLIITREQLTEALAIFEEAIAKVCKEGHHHHHH
soluble on expression in E. coli: not soluble

MSLKKVTLLVLDGFGVGAMADCEKVKPEDVNANTYKHLREAVDIHIPTLYQLGLGNIVDHLDTARAAYGRCDLAHHGADTFMGHQELMGSKPGVPQKRLMSEVGATIKKNLEKHGYDVRDPVEGAPVLLVNEAVVVGDNLESEVGNIINVVGDFRKLSFEQTIEVGKVVRSSVDTSRVIVYGNKEKTSIDLILSTIKERHPGQWGVDSPKANVYGEGYQVLHLGYGVDYEKQFAHLAEKQRLPVYRIGKTADVIQASGYHNPVVSTRKVLEVYQHEYSKSERDSVFLVNVQETDLAGHKEDCLWYKEVIEEVDRFLASFIDELDEEDLLIITADHGNDPTIGHSNHTREQTPVIIVGPQVRPISIGTRQTMADLAATMADYMGVAPPQYGTSFLHQILREGHHHHHH
soluble on expression in E. coli: soluble

GHMSESREARLIIFHAGSLSIPLSQVEEKFTKYAQEKLGVKVTFQDEASGSVKAVRKVTDLKKRADIVAVADYTLIPQLMIPNYTDFYVLFATNEIVIAFTNKSKYADEMLKNPDKWYEILSRPDVSFGFSDPNQDPCGYRSVMVMKLAELYYGRPIFKELVEKTTNIYSNGTRIYAPKEIIIKDKRVIMRPKETDLVGLVESGSLDYIFIYKSVAKQHHLSYITLPDDINLGDFNKADFYGRVSITLGSTGKTIKAKPIVYGITVLKNAPNRELAIEFLRFLLGNEGRKIFEDNYQEFLSPPVAFGNVPPEIRRLVEVK
soluble on expression in E. coli: soluble

MGSDKIHHHHHHMTILHSTDFFKAGISTVAIEPRLPQSAFPEHHHDFHEIVIVEQGSGIHVFNGQPYTIGGGSVCFIRDHDRHLYEHTDNLCLTNVLYRAPDAFRFLAGVSQLLPQEQEGNYPSHWRVNQTVLQQVRHIVAQIEAVGSDTDTHAVASREILFMQLLVLLRKSSLAEEATNNDARLNQLLAWLEDHFAQEICWEEVAAQFSLSLRTLHRQLKQQTGLTPQRYLNRVRLMKARHLLRHSDESVTDIAYRCGFGDSNHFSTLFRREFDWSPRDIRQGRDAILQ
soluble on expression in E. coli: not soluble

VTQQSRQLLDVTRIYYEPAAAELPRGRQVLERWPDATLVPVESHWRIPELHGDETNVDRWVRIKREALVLGIKKSLTAKPNGRSADFIAPSTANGCAMACAYCYVPRRKGYSNPITVFTNIEQITGYLERHVHRQGVKPEPNQCDPASWVYDLGENSDCSVDAEVSDNVDDLIALFRGLPTAKASFATKHVNRRLLTLDPQGRTRVRFSLMPARVAKLLDVRTSPVPERLGALDDFVAAGYEVHVNLSPVVVHEDWLPVWAALLDELGDATNDATKAQLQAEVIFLTHEENLHRVNLGWHPKAEDLLWRPAMQETKRSQNGGVNVRYRTGDKGRYVQQLLALIEERAPYLRVRYAF
soluble on expression in E. coli: soluble

LADSIVPRQQWAAIEPRRQIKMNGRADEIFLWQTGPDTCSLMGLTADKCQGCLQDSSCTEQIVKALQDADFKEGNDDIKYNFLIDQDGVIYEGRGWGVVGQHTKGRDSHSIGVAVIGDFGKKEPSQALQDALSKLIICGQAAEELSSGARLRTTPAMSGQAFYDMLDRCDGLCLDD
soluble on expression in E. coli: soluble

MKTLSPAVITLLWRQDAAEFYFSRLSHLPWAMLLHSGYADHPYSRFDIVVAEPICTLTTFGKETVVSESEKRTTTTDDPLQVLQQVLDRADIRPTHNEDLPFQGGALGLFGYDLGRRFESLPEIAEQDIVLPDMAVGIYDWALIVDHQRHTVSLLSHNDVNARRAWLESQQFSPQEDFTLTSDWQSNMTREQYGEKFRQVQEYLHSGDCYQVNLAQRFHATYSGDEWQAFLQLNQANRAPFSAFLRLEQGAILSLSPERFILCDNSEIQTRPIKGTLPRLPDPQEDSKQAVKLANSAKDRAENLMIVDLMRNDIGRVAVAGSVKVPELFVVEPFPAVHHLVSTITAQLPEQLHASDLLRAAFPGGSITGAPKVRAMEIIDELEPQRRNAWCGSIGYLSFCGNMDTSITIRTLTAINGQIFCSAGGGIVADSQEEAEYQETFDKVNRILKQLEK
soluble on expression in E. coli: soluble

MAYFIDRRLNGKNKSTVNRQRFLRRYKSQIKQSISEAINKRSVTDIESGESVSIPNADINEPMFHQGRGGHRHRVHPGNDHFVQNDKIERPQGGGGSGSGQGDASKDGEGDDEFVFQISKDEYLDLLFEDLALPNLKKTQHRQMTEYKMHRAGYTANGVPANISVVRSLQNSLARRMAMTAGKRRTLHELEESLEQLAYTEPAQLLEEERLREDIAELRKKIARVPFIDTFDLRYKNYERRAEPSSQAVMFCLMDVSGSMDQATKDMAKRFYILLYLFLSRNYKNVDVVYIRHHTQAKEVDEQEFFYSQETGGTIVSSALKLMEEVVRERYDPSQWNIYAAQASDGDNWADDSPLCHQILASKLLPMVRYYSYIEITRRSHQTLWREYETLRDTFDNFAMQHIRDQDDIYPVFRELFRKQTVGHLEHHHHHH
soluble on expression in E. coli: not soluble

MLTFALTIVRAGETQYNRDKLLQGQGIDTPLSDTGHQQAAAAGRYLKDLHFTNVFVSNLQRAIQTAEIILGNNLHSSATEMILDPLLRERGFGVAEGRPKEHLKNMANAAGQSCRDYTPPGGETLEQVKTRFKMFLKSLFQRMFEEHGSALSSVPSEADQPVIAGLADDGAQNVPVHALMVSHGAFIRISVRHLVEDLQCCLPAGLKMNQVFSPCPNTGISRFIFTIHREESVLRATRIQGVFINRKDHLEEVKNSDLEHHHHHH
soluble on expression in E. coli: soluble

MKNKLLVLSLGALCVSQIWESNRASAVVSGEKNPYVSESLKLTNNKNKSRTVEEYKKSLDDLIWSFPNLDNERFDNPEYKEAMKKYQQRFMAEDEALKKFFSEEKKIKNGNTDNLDYLGLSHERYESVFNTLKKQSEEFLKEIEDIKKDNPELKDFNEEEQLKCDLELNKLENQILMLGKTFYQNYRDDVESLYSKLDLIMGYKDEERANKKAVNKRMLENKKEDLETIIDEFFSDIDKTRPNNIPVLEDEKQEEKNHKNMAQLKSDTEAAKSDESKRSKRSKRSLNTQNHKPASQEVSEQQKAEYDKRAEERKARFLDNQKIKKTPVVSLEYDFEHKQRIDNENDKKLVVSAPTKKPTSPTTYTETTTQVPMPTVERQTQQQIIYNAPKQLAGLNGESHDFTTTHQSPTTSNHTHNNVVEFEETSALPGRKSGSLVGISQIDSSHLTEREKRVIKREHVREAQKLVDNYKDTHSYKDRINAQQKVNTLSEGHQKRFNKQINKVYNGK
soluble on expression in E. coli: not soluble

VPACTVSNTTVDWQDVEIQTLSQNGNHEKEFTVNMRCPYNLGTMKVTITATNTYNNAILVQNTSNTSSDGLLVYLYNSNAGNIGTAITLGTPFTPGKITGNNADKTISLHAKLGYKGNMQNLIAGPFSATATLVASYS
soluble on expression in E. coli: soluble

MSKDYQSLAKLSPFELKDELIKIASSDGNRLMLNAGRGNPNFLATTPRRAFFRLGLFAAAESELSYSYMTTVGVGGLAKIDGIEGRFERYIAENRDQEGVRFLGKSLSYVRDQLGLDPAAFLHEMVDGILGCNYPVPPRMLNISEKIVRQYIIREMGADAIPSESVNLFAVEGGTAAMAYIFESLKLNGLLKAGDKVAIGMPVFTPYIEIPELAQYALEEVAINADPSLNWQYPDSELDKLKDPAIKIFFCVNPSNPPSVKMDQRSLERVRNIVAEHRPDLMILTDDVYGTFADDFQSLFAICPENTLLVYSFSKYFGATGWRLGVVAAHQQNVFDLALDKLQESEKVALDHRYRSLLPDVRSLKFIDRLVADSRAVALNHTAGLSTPQQVQMALFSLFALMDEADEYKHTLKQLIRRRETTLYRELGMPPLRDENAVDYYTLIDLQDVTAKLYGEAFSEWAVKQSSTGDMLFRIADETGIVLLPGRGFGSNRPSGRASLANLNEYEYAAIGRALRKMADELYAEYSGQAQNLKLAAALEHHHHHH
soluble on expression in E. coli: soluble

GSELETAMETLINVFHAHSGKEGDKYKLSKKELKELLQTELSGFLDAQKDADAVDKVMKELDEDGDGEVDFQEYVVLVAALTVACNNFFWENS
soluble on expression in E. coli: soluble

MKKTKIVALSMMNSQTSGNPSRGTTKFESYTFDYWQYIDTLVYWGGSSGEGIIVTPSADVIDEAHSNGVPVLGTIFLPPKEYGGKVDWVKTMLKKDEQGQYPFASQMVKVAKTYGFEGWFINEETQGLNADDAANMKALIQQVKKEDSSLQIMWYDAMTKDGKVDWQNQLNDQNATFVQDKAADAMFLNFWWTQNNLADQKLLEKSNLYAKNHNIDPYNIYAGIDVQAKDVQTPVKWNLLEKGNQATQTSIGLYAASATYTNASNWDDFQNRESAFWVNQKADPRQVDHSVNESWTGLSKYVLEKSAISGNEFNTNFNLGNGYNYFKAGQKISEMDWNDRSLAGILPSYRWIIDNEGKNKISPSFDFANAYNGGNSLKFMAEHLDAGKSSNITLFASDLKIAMGAKFSVSMRSDQALKVSAILELANGQKVSIAGDKSLTENWSKLEHHHHHH
soluble on expression in E. coli: not soluble

MGSDKIHHHHHHAPRTPPATDAWSGFRQLFELDPHYAHFANFLITSHPRPVREAIASLRAQLDQHPARCVEWDTQSEWKHEAEVREWAGRYLEVKPRQIALTGSTTEGLGMIYGGLRLNPQQEILTTEHEHYSTRNILAYRSQRDGTQVRKLRLFDDPAKVSDDQVLSTIAAAIKPQTRVLGMTWVHSGSGVKLPVGQIGALVHEANRNRDENDRILYVIDGVHGFGVEDMRFADLQCDYFIAGTHKWMFGPRGTGIICAASTELKHLTPTFATFSENEDFATTMTPGGYHAFEHRWALGKAFELHLQHGKAAIQARIHGLNDYLKERLAQHRAIELVTPRSPNHSAGFTFFRVKGQDVEAIAAHLNSQRIVVDAVDRDVGPVVRTAPGLLNTEAEIDRLVDVLGQRLRA
soluble on expression in E. coli: not soluble

MAHHHHHHMKKNLIRWGEKVTDELTKVTLTDKPLGTDFDQGIENLQIKFKELFKIWKNASNKLINDFTSKLDTTSYLSSLQNFVDNEYEFYDSASSVCDEETNS
soluble on expression in E. coli: not soluble

LMKLYSLSVFYKGEPKAVLLKAAYDVSSFSFFQRSSVQEFMTFTSQLIVERSAKGSRASVKEQEYLCHVYVRSDSLAGVVIADSEYPSRVAFTLLEKVLDEFSKQVDRIDWPVGSPATIHYTALDGHLSRYQNPREADPMSKVQAELDETKIILHNTMESLLERGEKLDDLVSKSEVLGTQSKAFYKTARKQNSCCAIM
soluble on expression in E. coli: soluble

MSLKRMVNVLFAGVLAMTVLSCGEEKKGYTLNGEISDVKDGMVYLKKYQDKSFIAVDSAVITDGTFKFEGVCTEPLAYGLTTFRDSKRPLVFFLDNEKMQLKMNESEKILTVTGSAINDLYAQNAPLTRQDGYSIDSLVAVHPASAVTPYFIVKDFAYKLNLEEMKALRAKLDASLDETMYVSQIDGFIKRMKDIQVGAVAPDFTLPDVDGNPVTLSGLRGKYVLIDFWASWCPDCRKENPNIVAAWNKYKDKNFTILGVSLDRKKEPWLAAIEKDQLAWTHVSDLKDWKSDAAVQYAIRWIPMNFLLDPNGVILAVGLEGEALQQKLDEVLKEGHHHHHH
soluble on expression in E. coli: not soluble
